Like-named read-outs stand apart in the source and are kept apart here. Square brackets hold non-standard residues; d marks the D form. hPhe = N[C@@H](CCc1ccccc1)C(=O)O; Nle = CCCC[C@H](N)C(=O)O; Dap = NC[C@H](N)C(=O)O
Columns and labels:
Assay in all cases: cell-based or functional assay
[1] = target: T1, mouse melanocortin-5 receptor (mouse, UniProt P41149 1-325)
[2] = target: T2, mouse melanocortin-4 receptor (mouse, UniProt P56450 1-332)
[3] = target: T3, mouse melanocortin-1 receptor (mouse, UniProt Q01727 1-315)
T3 sequence (Q01727 whole entry): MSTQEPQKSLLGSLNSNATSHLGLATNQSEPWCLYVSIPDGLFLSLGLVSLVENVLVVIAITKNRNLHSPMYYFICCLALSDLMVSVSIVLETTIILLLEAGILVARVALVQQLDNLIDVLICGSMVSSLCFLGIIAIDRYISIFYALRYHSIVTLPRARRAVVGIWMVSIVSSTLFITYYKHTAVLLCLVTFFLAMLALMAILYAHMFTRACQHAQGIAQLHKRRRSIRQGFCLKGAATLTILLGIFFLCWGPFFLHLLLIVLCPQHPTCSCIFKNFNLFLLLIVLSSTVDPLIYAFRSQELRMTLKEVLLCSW

[4] = target: T4, mouse melanocortin-3 receptor (mouse, UniProt P33033 1-323)
T4 sequence (P33033 whole entry): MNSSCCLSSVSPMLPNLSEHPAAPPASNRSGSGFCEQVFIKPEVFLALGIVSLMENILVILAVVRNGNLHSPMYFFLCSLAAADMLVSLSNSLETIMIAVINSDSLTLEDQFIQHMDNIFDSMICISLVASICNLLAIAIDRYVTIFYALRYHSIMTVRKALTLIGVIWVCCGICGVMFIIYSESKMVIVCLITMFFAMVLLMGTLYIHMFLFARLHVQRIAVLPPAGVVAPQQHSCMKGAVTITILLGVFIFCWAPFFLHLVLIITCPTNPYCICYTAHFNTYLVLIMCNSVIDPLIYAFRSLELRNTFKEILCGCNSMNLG

[5] = target: T3, mouse melanocortin-1 receptor; remark: listed apart in the source
[6] = target: T2, mouse melanocortin-4 receptor; remark: listed apart in the source
[7] = target: T4, mouse melanocortin-3 receptor; remark: listed apart in the source
[8] = target: T1, mouse melanocortin-5 receptor; remark: listed apart in the source
[9] = target: T3, mouse melanocortin-1 receptor; remark: listed apart in the source

T2 sequence (P56450 whole entry): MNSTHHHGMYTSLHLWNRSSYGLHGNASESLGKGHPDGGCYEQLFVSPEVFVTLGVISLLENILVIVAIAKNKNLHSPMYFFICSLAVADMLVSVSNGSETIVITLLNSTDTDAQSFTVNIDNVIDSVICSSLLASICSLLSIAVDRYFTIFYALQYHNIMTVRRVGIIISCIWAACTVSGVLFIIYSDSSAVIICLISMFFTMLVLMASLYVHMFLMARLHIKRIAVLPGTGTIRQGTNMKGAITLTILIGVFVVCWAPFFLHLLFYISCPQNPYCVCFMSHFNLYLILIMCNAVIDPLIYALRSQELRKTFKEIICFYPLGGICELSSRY
T1 sequence (P41149 whole entry): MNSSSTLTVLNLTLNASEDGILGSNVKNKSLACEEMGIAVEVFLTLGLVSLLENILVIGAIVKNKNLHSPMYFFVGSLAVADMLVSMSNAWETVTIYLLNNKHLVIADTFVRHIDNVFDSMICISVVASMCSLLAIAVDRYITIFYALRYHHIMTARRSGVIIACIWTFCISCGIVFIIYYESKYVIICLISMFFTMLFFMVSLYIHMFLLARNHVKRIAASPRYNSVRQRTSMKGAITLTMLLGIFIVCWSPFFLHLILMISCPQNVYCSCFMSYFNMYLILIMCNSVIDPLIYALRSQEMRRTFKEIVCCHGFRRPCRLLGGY

B1: c[Pro-Arg-Phe-Phe-Leu-Ala-Phe-DPro] (peptide)
peptide: cyclo(PRFFLAF[dP])
SMILES: CC(C)C[C@@H]1NC(=O)[C@H](Cc2ccccc2)NC(=O)[C@H](Cc2ccccc2)NC(=O)[C@H](CCCNC(=N)N)NC(=O)[C@@H]2CCCN2C(=O)[C@H]2CCCN2C(=O)[C@H](Cc2ccccc2)NC(=O)[C@H](C)NC1=O
inverse agonist apparent potency [1]: 0.11 µM | inverse agonist, % decrease from basal cAMP [1]: -20% | agonist EC50 (cAMP AlphaScreen) [2]: > 100 µM | antagonist pA2 (Schild, agonist NDP-MSH) [2]: 7.34 | agonist EC50 (cAMP AlphaScreen) [3]: > 100 µM | agonist EC50 (cAMP AlphaScreen) [4]: > 100 µM | antagonist pA2 (Schild, agonist NDP-MSH) [4]: 5.7

B2: c[Pro-Arg-Phe-DPhe-Asn-Ala-Phe-DPro] (peptide)
peptide: cyclo(PRF[dF]NAF[dP])
% maximal NDP-MSH response at 100 µM (cAMP AlphaScreen) [5]: 50%

B3: c[Pro-DArg-DPhe-DPhe-Asn-Ala-Phe-DPro] (peptide)
peptide: cyclo(P[dR][dF][dF]NAF[dP])
agonist EC50 (cAMP AlphaScreen) [5]: 1.3 µM | partial agonist efficacy, % of NDP-MSH [5]: 85%

B4: c[Pro-Arg-Phe-Phe-Arg-Ala-Phe-DPro] (peptide)
peptide: cyclo(PRFFRAF[dP])
antagonist pA2 (Schild, agonist NDP-MSH) [6]: 8.7 | antagonist pA2 (Schild, agonist NDP-MSH) [7]: 7.4 | EC50 (cAMP AlphaScreen, inverse agonist) [8]: > 100 µM | agonist EC50 (cAMP AlphaScreen) [9]: 0.6 µM | partial agonist, % receptor stimulation [9]: 25%

B5: c[Pro-Arg-Phe-Phe-Asn-Lys-Phe-DPro] (peptide)
peptide: cyclo(PRFFNKF[dP])
SMILES: N=C(N)NCCC[C@@H]1NC(=O)[C@@H]2CCCN2C(=O)[C@H]2CCCN2C(=O)[C@H](Cc2ccccc2)NC(=O)[C@H](CCCCN)NC(=O)[C@H](CC(N)=O)NC(=O)[C@H](Cc2ccccc2)NC(=O)[C@H](Cc2ccccc2)NC1=O
% maximal NDP-MSH response at 100 µM (cAMP AlphaScreen) [1]: 45% | agonist EC50 (cAMP AlphaScreen) [2]: > 100 µM | antagonist pA2 (Schild, agonist NDP-MSH) [2]: 6.11 | % maximal NDP-MSH response at 100 µM (cAMP AlphaScreen) [3]: 60% | % maximal NDP-MSH response at 100 µM (cAMP AlphaScreen) [4]: 45% | antagonist pA2 (Schild, agonist NDP-MSH) [4]: < 5.5

B6: c[Pro-Arg-Phe-Phe-Asn-Phe-Phe-DPro] (peptide)
peptide: cyclo(PRFFNFF[dP])
SMILES: N=C(N)NCCC[C@@H]1NC(=O)[C@@H]2CCCN2C(=O)[C@H]2CCCN2C(=O)[C@H](Cc2ccccc2)NC(=O)[C@H](Cc2ccccc2)NC(=O)[C@H](CC(N)=O)NC(=O)[C@H](Cc2ccccc2)NC(=O)[C@H](Cc2ccccc2)NC1=O
% maximal NDP-MSH response at 100 µM (cAMP AlphaScreen) [1]: 25% | % maximal NDP-MSH response at 100 µM (cAMP AlphaScreen) [2]: 35% | antagonist pA2 (Schild, agonist NDP-MSH) [2]: 5.71 | % maximal NDP-MSH response at 100 µM (cAMP AlphaScreen) [3]: 70% | % maximal NDP-MSH response at 100 µM (cAMP AlphaScreen) [4]: 35% | antagonist pA2 (Schild, agonist NDP-MSH) [4]: 5.72

B7: c[Pro-Arg-Phe-Phe-Nle-Ala-Phe-DPro] (peptide)
peptide: cyclo(PRFF[Nle]AF[dP])
agonist EC50 (cAMP AlphaScreen) [1]: > 100 µM | agonist EC50 (cAMP AlphaScreen) [2]: > 100 µM | antagonist pA2 (Schild, agonist NDP-MSH) [2]: 6.9 | agonist EC50 (cAMP AlphaScreen) [3]: > 100 µM | agonist EC50 (cAMP AlphaScreen) [4]: > 100 µM | antagonist pA2 (Schild, agonist NDP-MSH) [4]: < 5.5

B8: c[Pro-Arg-DPhe-Phe-Asn-Ala-Phe-DPro] (peptide)
peptide: cyclo(PR[dF]FNAF[dP])
agonist EC50 (cAMP AlphaScreen) [5]: 0.7 µM

B9: c[Pro-Arg-Phe-Phe-Asn-Ser-Nle-DPro] (peptide)
peptide: cyclo(PRFFNS[Nle][dP])
SMILES: CCCC[C@@H]1NC(=O)[C@H](CO)NC(=O)[C@H](CC(N)=O)NC(=O)[C@H](Cc2ccccc2)NC(=O)[C@H](Cc2ccccc2)NC(=O)[C@H](CCCNC(=N)N)NC(=O)[C@@H]2CCCN2C(=O)[C@H]2CCCN2C1=O
antagonist pA2 (Schild, agonist NDP-MSH) [6]: 8.5 | antagonist pA2 (Schild, agonist NDP-MSH) [7]: 6.6 | agonist EC50 (cAMP AlphaScreen) [9]: 2.6 µM | partial agonist, % receptor stimulation [9]: 75%

B10: c[Pro-Arg-Phe-Phe-Dap-Ser-Phe-DPro] (peptide)
peptide: cyclo(PRFF[Dap]SF[dP])
SMILES: N=C(N)NCCC[C@@H]1NC(=O)[C@@H]2CCCN2C(=O)[C@H]2CCCN2C(=O)[C@H](Cc2ccccc2)NC(=O)[C@H](CO)NC(=O)[C@H](CN)NC(=O)[C@H](Cc2ccccc2)NC(=O)[C@H](Cc2ccccc2)NC1=O
antagonist pA2 (Schild, agonist NDP-MSH) [6]: 9.1 | antagonist pA2 (Schild, agonist NDP-MSH) [7]: 6.8 | EC50 (cAMP AlphaScreen, inverse agonist) [8]: > 100 µM | agonist EC50 (cAMP AlphaScreen) [9]: 0.6 µM | partial agonist, % receptor stimulation [9]: 85%

B11: c[Pro-Arg-Phe-Phe-Asn-Ala-Ala-DPro] (peptide)
peptide: cyclo(PRFFNAA[dP])
SMILES: C[C@@H]1NC(=O)[C@H](CC(N)=O)NC(=O)[C@H](Cc2ccccc2)NC(=O)[C@H](Cc2ccccc2)NC(=O)[C@H](CCCNC(=N)N)NC(=O)[C@@H]2CCCN2C(=O)[C@H]2CCCN2C(=O)[C@H](C)NC1=O
inverse agonist, % change from basal cAMP at 100 µM [1]: -25% | agonist EC50 (cAMP AlphaScreen) [2]: > 100 µM | antagonist pA2 (Schild, agonist NDP-MSH) [2]: 8.16 | agonist EC50 (cAMP AlphaScreen) [3]: > 100 µM | agonist EC50 (cAMP AlphaScreen) [4]: > 100 µM | antagonist pA2 (Schild, agonist NDP-MSH) [4]: 6.1

B12: c[Pro-Arg-Phe-hPhe-Asn-Ala-Nle-DPro] (peptide)
peptide: cyclo(PRF[hPhe]NA[Nle][dP])
SMILES: CCCC[C@@H]1NC(=O)[C@H](C)NC(=O)[C@H](CC(N)=O)NC(=O)[C@H](CCc2ccccc2)NC(=O)[C@H](Cc2ccccc2)NC(=O)[C@H](CCCNC(=N)N)NC(=O)[C@@H]2CCCN2C(=O)[C@H]2CCCN2C1=O
EC50 (cAMP AlphaScreen, inverse agonist) [8]: > 100 µM

B13: c[Pro-Arg-Phe-Phe-Asn-His-Phe-DPro] (peptide)
peptide: cyclo(PRFFNHF[dP])
SMILES: N=C(N)NCCC[C@@H]1NC(=O)[C@@H]2CCCN2C(=O)[C@H]2CCCN2C(=O)[C@H](Cc2ccccc2)NC(=O)[C@H](Cc2c[nH]cn2)NC(=O)[C@H](CC(N)=O)NC(=O)[C@H](Cc2ccccc2)NC(=O)[C@H](Cc2ccccc2)NC1=O
agonist EC50 (cAMP AlphaScreen) [1]: > 100 µM | agonist EC50 (cAMP AlphaScreen) [2]: > 100 µM | antagonist pA2 (Schild, agonist NDP-MSH) [2]: 6.07 | agonist EC50 (cAMP AlphaScreen) [3]: 2.6 µM | agonist EC50 (cAMP AlphaScreen) [4]: > 100 µM | antagonist pA2 (Schild, agonist NDP-MSH) [4]: < 5.5

B14: c[Pro-DArg-Phe-Phe-Asn-Ala-Phe-DPro] (peptide)
peptide: cyclo(P[dR]FFNAF[dP])
% maximal NDP-MSH response at 100 µM (cAMP AlphaScreen) [5]: 50%

B15: c[Pro-Arg-Phe-Phe-Dap-Ser-Nle-DPro] (peptide)
peptide: cyclo(PRFF[Dap]S[Nle][dP])
SMILES: CCCC[C@@H]1NC(=O)[C@H](CO)NC(=O)[C@H](CN)NC(=O)[C@H](Cc2ccccc2)NC(=O)[C@H](Cc2ccccc2)NC(=O)[C@H](CCCNC(=N)N)NC(=O)[C@@H]2CCCN2C(=O)[C@H]2CCCN2C1=O
antagonist pA2 (Schild, agonist NDP-MSH) [6]: 9.1 | antagonist pA2 (Schild, agonist NDP-MSH) [7]: 6.5 | EC50 (cAMP AlphaScreen, inverse agonist) [8]: > 100 µM | agonist EC50 (cAMP AlphaScreen) [9]: > 100 µM

B16: c[Pro-DArg-DPhe-Phe-Asn-Ala-Phe-DPro] (peptide)
peptide: cyclo(P[dR][dF]FNAF[dP])
agonist EC50 (cAMP AlphaScreen) [5]: 0.5 µM | partial agonist efficacy, % of NDP-MSH [5]: 90%

B17: c[Pro-Arg-Phe-Phe-Asn-Gly-Phe-DPro] (peptide)
peptide: cyclo(PRFFNGF[dP])
SMILES: N=C(N)NCCC[C@@H]1NC(=O)[C@@H]2CCCN2C(=O)[C@H]2CCCN2C(=O)[C@H](Cc2ccccc2)NC(=O)CNC(=O)[C@H](CC(N)=O)NC(=O)[C@H](Cc2ccccc2)NC(=O)[C@H](Cc2ccccc2)NC1=O
inverse agonist, % change from basal cAMP at 100 µM [1]: -35% | agonist EC50 (cAMP AlphaScreen) [2]: > 100 µM | antagonist pA2 (Schild, agonist NDP-MSH) [2]: 6.1 | agonist EC50 (cAMP AlphaScreen) [3]: > 100 µM | agonist EC50 (cAMP AlphaScreen) [4]: > 100 µM | antagonist pA2 (Schild, agonist NDP-MSH) [4]: < 5.5

B18: c[Pro-Arg-Phe-Phe-Dap-Ala-Nle-DPro] (peptide)
peptide: cyclo(PRFF[Dap]A[Nle][dP])
SMILES: CCCC[C@@H]1NC(=O)[C@H](C)NC(=O)[C@H](CN)NC(=O)[C@H](Cc2ccccc2)NC(=O)[C@H](Cc2ccccc2)NC(=O)[C@H](CCCNC(=N)N)NC(=O)[C@@H]2CCCN2C(=O)[C@H]2CCCN2C1=O
antagonist pA2 (Schild, agonist NDP-MSH) [6]: 9 | antagonist pA2 (Schild, agonist NDP-MSH) [7]: 7.1 | EC50 (cAMP AlphaScreen, inverse agonist) [8]: > 100 µM | agonist EC50 (cAMP AlphaScreen) [9]: 0.19 µM

B19: c[Pro-Arg-Phe-Phe-Thr-Ala-Phe-DPro] (peptide)
peptide: cyclo(PRFFTAF[dP])
SMILES: C[C@@H]1NC(=O)[C@H]([C@@H](C)O)NC(=O)[C@H](Cc2ccccc2)NC(=O)[C@H](Cc2ccccc2)NC(=O)[C@H](CCCNC(=N)N)NC(=O)[C@@H]2CCCN2C(=O)[C@H]2CCCN2C(=O)[C@H](Cc2ccccc2)NC1=O
inverse agonist apparent potency [1]: 0.05 µM | inverse agonist, % decrease from basal cAMP [1]: -20% | agonist EC50 (cAMP AlphaScreen) [2]: > 100 µM | antagonist pA2 (Schild, agonist NDP-MSH) [2]: 7.76 | agonist EC50 (cAMP AlphaScreen) [3]: > 100 µM | agonist EC50 (cAMP AlphaScreen) [4]: > 100 µM | antagonist pA2 (Schild, agonist NDP-MSH) [4]: 6.4

B20: c[Pro-Arg-DPhe-DPhe-Asn-Ala-Phe-DPro] (peptide)
peptide: cyclo(PR[dF][dF]NAF[dP])
agonist EC50 (cAMP AlphaScreen) [5]: 0.8 µM | partial agonist efficacy, % of NDP-MSH [5]: 85%

B21: c[Pro-Arg-Phe-hPhe-Dap-Ala-Phe-DPro] (peptide)
peptide: PRFFXAFP
modifications: head-to-tail cyclic; hPhe at 4; Dap at 5; DPro at 8
antagonist pA2 (Schild, agonist NDP-MSH) [7]: 7.1 | EC50 (cAMP AlphaScreen, inverse agonist) [8]: > 100 µM | agonist EC50 (cAMP AlphaScreen) [9]: 0.56 µM | partial agonist, % receptor stimulation [9]: 70%

B22: c[Pro-Arg-Phe-Phe-Asn-Leu-Phe-DPro] (peptide)
peptide: cyclo(PRFFNLF[dP])
SMILES: CC(C)C[C@@H]1NC(=O)[C@H](CC(N)=O)NC(=O)[C@H](Cc2ccccc2)NC(=O)[C@H](Cc2ccccc2)NC(=O)[C@H](CCCNC(=N)N)NC(=O)[C@@H]2CCCN2C(=O)[C@H]2CCCN2C(=O)[C@H](Cc2ccccc2)NC1=O
agonist EC50 (cAMP AlphaScreen) [1]: > 100 µM | % maximal NDP-MSH response at 100 µM (cAMP AlphaScreen) [2]: 25% | antagonist pA2 (Schild, agonist NDP-MSH) [2]: 6.18 | % maximal NDP-MSH response at 100 µM (cAMP AlphaScreen) [3]: 80% | % maximal NDP-MSH response at 100 µM (cAMP AlphaScreen) [4]: 25% | antagonist pA2 (Schild, agonist NDP-MSH) [4]: < 5.5

— patent US20200115416A1 (REGENTS OF THE UNIVERSITY OF MINNESOTA, published 2020)
